Laboratory results taken from patent publication US20210253738A1 (UNITED STATES OF AMERICA AS REPRESENTED BY THE SECRETARY …, published 2021).

Assays:
[1] = molecular target: T1, bovine serum albumin (BSA) (bovine, UniProt P02769 25-607); test: indirect EIA, compounds coated on microtiter plates, clonal supernatant, goat anti-mouse IgG HRP detection
T1 construct: Unconjugated carrier protein used as a screening control; also called carrier protein
Protocol: (§1) An assay was developed to screen the Mabs for reactivity to the FTC conjugates. Microtiter plates were coated with the following reagents: FTC-peptide-dextran, FTC-peptide, FTC-peptide-LPH, FTC-peptide-BSA, FTC heptanoic acid, peptide only, peptide-LPH, peptide-BSA, BSA, LPH, and normal mouse serum (NMS). All compounds were diluted into sodium bicarbonate buffer, pH 9.6, to a concentration of 5 ug/ml; NMS was diluted 1:15. One hundred microliters of each solution was added to a column of the microtiter plate such that each row of the plate allowed the testing of a single clonal supernatant against all of the compounds in a single run. Plates were incubated at 4° C. overnight and then washed 3× with phosphate-buffered saline (PBS) containing 0.05% Tween 20 (PBS-T). Plates were blocked with PBS containing 0.5% nonfat dry milk for 1 hour at 37° C., washed 3×, and dried at 37° C. for 30 minutes. Prepared plates were covered with an adhesive seal, placed into a moisture resistant bag, and stored in a dessicant chamber at 20-24° C. until use.

[2] = molecular target: T2, limulus polyphemus hemocyanin II (LPH) (Limulus polyphemus, UniProt P04253 1-628, limits assumed); test: as above
T2 construct: Unconjugated carrier protein used as a screening control; also called carrier protein
T2 sequence (looked up): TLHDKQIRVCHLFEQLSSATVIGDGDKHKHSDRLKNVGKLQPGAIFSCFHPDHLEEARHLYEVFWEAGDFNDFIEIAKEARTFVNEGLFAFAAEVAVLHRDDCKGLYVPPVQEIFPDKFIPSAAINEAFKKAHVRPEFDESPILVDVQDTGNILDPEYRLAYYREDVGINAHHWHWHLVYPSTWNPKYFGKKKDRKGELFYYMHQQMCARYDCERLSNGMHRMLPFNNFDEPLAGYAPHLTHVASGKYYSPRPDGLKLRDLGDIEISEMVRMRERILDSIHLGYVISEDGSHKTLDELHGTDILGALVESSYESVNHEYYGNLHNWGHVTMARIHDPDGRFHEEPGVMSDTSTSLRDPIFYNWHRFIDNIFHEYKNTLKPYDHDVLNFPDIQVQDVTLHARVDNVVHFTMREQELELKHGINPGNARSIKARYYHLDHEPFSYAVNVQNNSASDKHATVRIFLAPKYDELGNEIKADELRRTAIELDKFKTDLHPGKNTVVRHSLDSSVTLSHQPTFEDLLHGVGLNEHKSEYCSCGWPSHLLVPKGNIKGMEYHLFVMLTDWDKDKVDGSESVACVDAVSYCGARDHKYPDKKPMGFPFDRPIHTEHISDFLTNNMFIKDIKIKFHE
Protocol: as §1

T1 sequence (P02769 25-607 limits assumed): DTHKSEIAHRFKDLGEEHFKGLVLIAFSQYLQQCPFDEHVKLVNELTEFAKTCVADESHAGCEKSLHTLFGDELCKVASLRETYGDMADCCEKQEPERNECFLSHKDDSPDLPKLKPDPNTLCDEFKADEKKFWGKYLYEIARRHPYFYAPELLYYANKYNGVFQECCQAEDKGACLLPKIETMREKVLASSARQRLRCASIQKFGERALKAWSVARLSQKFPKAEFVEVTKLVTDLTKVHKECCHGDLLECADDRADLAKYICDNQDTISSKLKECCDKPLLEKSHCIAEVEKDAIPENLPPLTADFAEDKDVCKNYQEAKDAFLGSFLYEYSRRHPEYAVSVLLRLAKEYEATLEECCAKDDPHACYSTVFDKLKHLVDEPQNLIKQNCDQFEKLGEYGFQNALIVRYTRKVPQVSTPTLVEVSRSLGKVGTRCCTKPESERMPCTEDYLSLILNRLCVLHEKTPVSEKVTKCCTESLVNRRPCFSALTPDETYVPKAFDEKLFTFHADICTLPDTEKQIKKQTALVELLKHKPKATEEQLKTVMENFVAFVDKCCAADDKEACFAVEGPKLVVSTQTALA

B1: 5D2 monoclonal antibody (antibody, mouse IgG2b, kappa, V domains shown)
VH: QVQLQQPGAELVKPGASVKVSCKASGYTFTSYWMHWVKQRPGQGLEWIGRIHLSDSDTNYNQNFKDKATLTVDKSSRTAHMHLSSLTSADSAVYYCAMGGTFQSNYDTYWGQGTLVTVSA
VL: DIQMTQSPASLSASVGETVTITCRASGNIHNYLAWYQQKQGKSPQLLVYNAKTLTDGVPSRFSGSGSGTQYSLKINSLQPEDFGNYYCQHFLYTPYTFGGGTKLEMRR
notes: Mouse IgG2b, kappa, raised against the small molecule emtricitabine (FTC); In the lateral flow assay the antibody was conjugated to gold; also called Mab 5D2; FTC (5D2) monoclonal antibody
- binding result [1]: no binding (tested: 5 ug/ml (coating concentration))
- binding result [2]: no binding (tested: 5 ug/ml (coating concentration))
